Data reported in patent US8822165B2, “Method for producing cAMP using chimeric olfactory receptor” (Panasonic Corporation, priority 2010, dated 2014).

B1: chimeraOlfr15: IC4 domain of the Rho-myc-Olfr15 substituted with that of the beta-1 adrenergic receptor (protein)
chain: MNGTEGPNFYVPFSNKTGVVEQKLISEEDLEFMEVDSNSSSGSFILMGVSDHPHLEIIFFAVILASYLLTLVGNLTIILLSRLDARLHTPMYFFLSNLSSLDLAFTTSSVPQMLKNLWGPDKTISYGGCVTQLYVFLWLGATECILLVVMAFDRYVAVCRPLHYMTVMNPRLCWGLAAISWLGGLGNSVIQSTFTLQLPFCGHRKVDNFLCEVPAMIKLACGDTSLNEAVLNGVCTFFTVVPVSVILVSYCFIAQAVMKIRSVEGRRKAFNTCVSHLVVVFLFYGSAIYGYLLPAKSSNQSQGKFISLFYSVVTPMVNPLIYTLRNKDFRKAFQRLLCCARRAACRRRAAHGDRPRASGCLARAGPPPSPGAPSDDDDDDAGATPPARLLEPWAGCNGGTTTVDSDSSLDEPGRQGFSSESKV
modifications: ChimeraOlfr15
notes: IC4 domain of the Rho-myc-Olfr15 substituted with that of the beta-1 adrenergic receptor
B2: chimeraOlfr168: Rho-myc-Olfr168 where the IC4 domain was substituted with that of the beta-1 adrenergic receptor (protein)
chain: MNGTEGPNFYVPFSNKTGVVEQKLISEEDLEFMEKWNQSSSDFILLGLLPQNQTGLLLMMLIILVFFLALFGNSAMIHLIRVDPRLHTPMYFLLSQLSLMDLMYISTTVPKMAFNFLSGQKNISFLGCGVQSFFFLTMAGSEGLLLASMAYDRFVAICHPLHYPIRMSKIMCLKMIIGSWILGSINSLAHSIYALHIPYCHSRSINHFFCDVPAMLPLACMDTWVYEYMVFVSTSLFLLLPFLGITASYGRVLFAVFHMRSKEGKKKAFTTCSTHLTVVTFYYAPFVYTYLRPRSLRSPTEDKILTVFYTILTPMLNPIIYSLRNKDFRKAFQRLLCCARRAACRRRAAHGDRPRASGCLARAGPPPSPGAPSDDDDDDAGATPPARLLEPWAGCNGGTTTVDSDSSLDEPGRQGFSSESKV
modifications: ChimeraOlfr168
notes: Rho-myc-Olfr168 where the IC4 domain was substituted with that of the beta-1 adrenergic receptor
B3: Rho-myc-Olfr168: Rho-tag, myc epitope tag and EC1-IC4 domains of the Olfr168, mouse olfactory receptor for 2-pentanone (protein)
chain: MNGTEGPNFYVPFSNKTGVVEQKLISEEDLEFMEKWNQSSSDFILLGLLPQNQTGLLLMMLIILVFFLALFGNSAMIHLIRVDPRLHTPMYFLLSQLSLMDLMYISTTVPKMAFNFLSGQKNISFLGCGVQSFFFLTMAGSEGLLLASMAYDRFVAICHPLHYPIRMSKIMCLKMIIGSWILGSINSLAHSIYALHIPYCHSRSINHFFCDVPAMLPLACMDTWVYEYMVFVSTSLFLLLPFLGITASYGRVLFAVFHMRSKEGKKKAFTTCSTHLTVVTFYYAPFVYTYLRPRSLRSPTEDKILTVFYTILTPMLNPIIYSLRNKEVLGAMTRVLGTFSSMKP
modifications: Rho-myc-olfr168
B4: chimeraOlfr609: IC4 domain of the Rho-myc-Olfr609 substituted with that of the beta-1 adrenergic receptor (protein)
chain: MNGTEGPNFYVPFSNKTGVVEQKLISEEDLEFMSYSNHSSTSFFLTGLPGLETVYLWLSIPLCTMYIASLAGNGLILWVVKSEPSLHQPMYYFLSMLAVTDLGLSVSTLPTMLTIYMMGVSEVALDMCLAQLFFIHTFSIMESSVLLTMAFDRVVAISSPLHYATILTNPRVASLGMVILVRSIGLHIPAPIMLKKLPYCQKRHLSHSYCLHPDVMKLACTDTRINSAYGLFVVLSTLGVDSVLIVLSYGLILYTVLSIASKTERLKALNTCVSHICSVLLFYTPMIGLSMIHRFGKWASPCSRVLLSYLHFLTPPVLNPVVYTIKTKDFRKAFQRLLCCARRAACRRRAAHGDRPRASGCLARAGPPPSPGAPSDDDDDDAGATPPARLLEPWAGCNGGTTTVDSDSSLDEPGRQGFSSESKV
modifications: ChimeraOlfr 609
notes: IC4 domain of the Rho-myc-Olfr609 substituted with that of the beta-1 adrenergic receptor
B5: Rho-myc-Olfr609: Rho-tag, myc epitope tag and EC1-IC4 domains of the Olfr609, mouse olfactory receptor for vanillic acid (protein)
chain: MNGTEGPNFYVPFSNKTGVVEQKLISEEDLEFMSYSNHSSTSFFLTGLPGLETVYLWLSIPLCTMYIASLAGNGLILWVVKSEPSLHQPMYYFLSMLAVTDLGLSVSTLPTMLTIYMMGVSEVALDMCLAQLFFIHTFSIMESSVLLTMAFDRVVAISSPLHYATILTNPRVASLGMVILVRSIGLHIPAPIMLKKLPYCQKRHLSHSYCLHPDVMKLACTDTRINSAYGLFVVLSTLGVDSVLIVLSYGLILYTVLSIASKTERLKALNTCVSHICSVLLFYTPMIGLSMIHRFGKWASPCSRVLLSYLHFLTPPVLNPVVYTIKTKQIRQRIWRIFRCGGRSIGHIQGH
modifications: Rho-myc-olfr609
B6: Rho-myc-Olfr15: Rho-tag, myc epitope tag and EC1-IC4 domains of the Olfr15, mouse olfactory receptor for cyclohexanone (protein)
chain: MNGTEGPNFYVPFSNKTGVVEQKLISEEDLEFMEVDSNSSSGSFILMGVSDHPHLEIIFFAVILASYLLTLVGNLTIILLSRLDARLHTPMYFFLSNLSSLDLAFTTSSVPQMLKNLWGPDKTISYGGCVTQLYVFLWLGATECILLVVMAFDRYVAVCRPLHYMTVMNPRLCWGLAAISWLGGLGNSVIQSTFTLQLPFCGHRKVDNFLCEVPAMIKLACGDTSLNEAVLNGVCTFFTVVPVSVILVSYCFIAQAVMKIRSVEGRRKAFNTCVSHLVVVFLFYGSAIYGYLLPAKSSNQSQGKFISLFYSVVTPMVNPLIYTLRNKEVKGALGRLLGKGRGAS
modifications: Rho-myc-Olfr15

Assays:
Type in all cases: cell-based
[1] = test system: HEK293T cells; assay: cAMP production by Olfr15-derived receptors expressed in HEK293T cells, cyclohexanone as agonist (Experiment 3)
Protocol: (§1) Subsequently, the HEK293T cells were transfected with the above-mentioned three plasmids by a lipofection method. The HEK293T cells were incubated for 48 hours, and the β1AR consisting of the protein represented by SEQ ID NO: 03 was expressed on the cell membrane of the HEK293T cell.
(§2) The abbreviation “IBMX” means 3-isobutyl-1-methylxanthine. The IBMX is one of the phosphodiesterase inhibitors. The IBMX stabilizes cAMP, which is unstable.
The expression was conducted similarly to that of the step 2 of the reference example 1 except that the plasmid (Rho-myc-Olfr15) was used instead of the plasmid (β1AR). In this way, the Rho-myc-Olfr15 (SEQ ID NO: 58) was expressed on a cell membrane.
Instead of the eugenol aqueous solutions, the concentrations of the cAMP were measured similarly to the step 3 of the comparative example 1-1 except that cyclohexanone aqueous solutions having concentrations of 30 μM, 100 μM, 300 μM, 1000 μM, and 3000 μM were used as agonists.
The expression was conducted similarly to that of the step 2 of the reference example 1 except that the plasmid (chimeraOlfr15) was used instead of the plasmid (β1AR). In this way, the chimeraOlfr15 (SEQ ID NO: 60) was expressed on a cell membrane.
The concentrations of the cAMP were measured similarly to the step 3 of the comparative example 3-1.

[2] = test system: HEK293T cells; assay: cAMP production by Olfr168-derived receptors expressed in HEK293T cells, 2-pentanone as agonist (Experiment 2)
Protocol: as §1, §2
The expression was conducted similarly to that of the step 2 of the reference example 1 except that the plasmid (Rho-myc-Olfr168) was used instead of the plasmid (β1AR). In this way, the Rho-myc-Olfr168 (SEQ ID NO: 49) was expressed on a cell membrane.
The concentrations of the cAMP were measured similarly to the step 3 of the comparative example 1-1 except that 2-pentanone aqueous solutions having concentrations of 30 μM, 100 μM, 300 μM, 1000 μM, and 3000 μM were used as agonists instead of the eugenol aqueous solutions.
The expression was conducted similarly to that of the step 2 of the reference example 1 except that the plasmid (chimeraOlfr168) was used instead of the plasmid (β1AR). In this way, the chimeraOlfr168 (SEQ ID NO: 51) was expressed on a cell membrane.
The concentrations of the cAMP were measured similarly to the step 3 of the comparative example 2-1.

[3] = test system: HEK293T cells; assay: cAMP production by Olfr609-derived receptors expressed in HEK293T cells, vanillic acid as agonist (Experiment 4)
Protocol: as §1, §2
The expression was conducted similarly to that of the step 2 of the reference example 1 except that the plasmid (Rho-myc-Olfr609) was used instead of the plasmid (β1AR). In this way, the Rho-myc-Olfr609 (SEQ ID NO: 64) was expressed on a cell membrane.
Instead of the eugenol aqueous solutions, the concentrations of the cAMP were measured similarly to the step 3 of the comparative example 1-1 except that vanillic acid aqueous solutions having concentrations of 0.30 μM, 1 μM, 3 μM, 10 μM, and 30 μM were used as agonists.
The expression was conducted similarly to that of the step 2 of the reference example 1 except that the plasmid (chimeraOlfr609) was used instead of the plasmid (β1AR). In this way, the chimeraOlfr609 (SEQ ID NO: 69) was expressed on a cell membrane.
The concentrations of the cAMP were measured similarly to the step 3 of the comparative example 4-1.

Molecule	concentration of the cAMP ([1]; cyclohexanone 0 μM)	concentration of the cAMP ([1]; cyclohexanone 30 μM)	concentration of the cAMP ([1]; cyclohexanone 100 μM)	concentration of the cAMP ([1]; cyclohexanone 1000 μM)	concentration of the cAMP ([1]; cyclohexanone 3000 μM)	concentration of the cAMP ([2]; 2-pentanone 0 μM)	concentration of the cAMP ([2]; 2-pentanone 30 μM)	concentration of the cAMP ([2]; 2-pentanone 100 μM)	concentration of the cAMP ([2]; 2-pentanone 300 μM)	concentration of the cAMP ([2]; 2-pentanone 1000 μM)	concentration of the cAMP ([2]; 2-pentanone 3000 μM)	concentration of the cAMP ([3]; vanillic acid 0 μM)	concentration of the cAMP ([3]; vanillic acid 0.3 μM)	concentration of the cAMP ([3]; vanillic acid 1 μM)	concentration of the cAMP ([3]; vanillic acid 3 μM)	concentration of the cAMP ([3]; vanillic acid 10 μM)	concentration of the cAMP ([3]; vanillic acid 30 μM)	other results
B1	0.0282	0.0280	0.0250	0.0290	0.0916	–	–	–	–	–	–	–	–	–	–	–	–	concentration of the cAMP compared with Rho-myc-olfr15 (in words) ([1]; cyclohexanone, Table 7): much greater
B2	–	–	–	–	–	0.0187	0.0220	0.0270	0.0520	0.0775	0.0916	–	–	–	–	–	–	concentration of the cAMP compared with Rho-myc-Olfr168 (in words) ([2]; 2-pentanone, Table 6): much greater
B3	–	–	–	–	–	0.0215	0.0170	0.0170	0.0280	0.0400	0.0444	–	–	–	–	–	–	–
B4	–	–	–	–	–	–	–	–	–	–	–	0.075	0.166	0.160	0.192	0.162	0.187	concentration of the cAMP compared with Rho-myc-Olfr609 (in words) ([3]; vanillic acid, Table 8): much greater
B5	–	–	–	–	–	–	–	–	–	–	–	0.014	0.070	0.076	0.127	0.067	0.071	–
B6	0.0173	0.0180	0.0210	0.0280	0.0444	–	–	–	–	–	–	–	–	–	–	–	–	–
